Among the data in publication PMC314469, “Protein Interaction Networks by Proteome Peptide Scanning” (PLoS Biology, 2004) are normalised SPOT signal, Boehringer light units (BLU); mean over the file's lines of this peptide values, retold here.

B1: 170-183 Possible RNA binding protein. Homolog of Whi3. (peptide)
chain: IFGPSFPFRSHIDV
B2: 316-329 PLasmid Maintenance (peptide)
chain: INQPSTPKKLKRKS
B3: 192-205 " contains 3 SH3 domains, interacts with Bee1p" (peptide)
chain: GPPPAMPARPTATT
B4: 171-184 " 1,4-glucan-6-(1,4-glucano)-transferase" (peptide)
chain: FWNPENPYKFVHPR
B5: 859-872 Hypothetical ORF (peptide)
chain: IVNPFIPRRPYSNV
B6: 256-269 mitochondrial ribosomal protein L2 of the large subunit (peptide)
chain: GITPVGPGKFSRSA
B7: 71-84 Nuclear protein that binds to T-rich strand of core consensus sequence of autonomously replicating sequence (peptide)
chain: GVYPSRPEKTYDYS
B8: 64-77 Transcription factor (fork head domain) (peptide)
chain: HSSPIAPSKAKRQR
B9: 41-54 Mitochondrial ribosomal protein MRPL36 (YmL36) (peptide)
chain: ITLPRRPAKKIQLG
B10: 193-206 subunit of a cytoplasmic histone acetyltransferase (peptide)
chain: GGDPTKPVRTWNDL
B11: 1268-1281 protein kinase (peptide)
chain: GRIPQLPNRDEMTA
B12: 106-119 " mRNA guanylyltransferase (mRNA capping enzyme), alpha subunit" (peptide)
chain: FRFPRLPQKKKEEL
B13: 32-45 Hypothetical ORF (peptide)
chain: IAYPFYPFKKLGRQ
B14: 704-717 vitamin B12-(cobalamin)-independent isozyme of methionine synthase (also called N5-methyltetrahydrofolate homocysteine m (peptide)
chain: IHSPRIPSKDEFIA
B15: 390-403 " type II PI(4)P5-kinase (PIP4,5 kinase) similar to human PIP5K-II" (peptide)
chain: ISTPPPPPKMAIPA
B16: 408-421 mitochondrial and cytoplasmic valyl-tRNA synthetase (peptide)
chain: IQHPFLPRKIPIIT
B17: 66-79 vacuolar alpha mannosidase (peptide)
chain: GSSPVSPDKRPSWK
B18: 310-323 H+-biotin symporter (peptide)
chain: FVIPGVPSKSYSLF
B19: 440-453 Hypothetical ORF (peptide)
chain: FPYPFKPSRVGVKY
B20: 1426-1439 Hypothetical ORF (peptide)
chain: GYDPTDPNRPKVTK
B21: 187-200 Mitochondrial ribosomal protein MRPL6 (YmL6) (peptide)
chain: KFHPPEPYKGKGIY
B22: 496-509 Hypothetical ORF (peptide)
chain: IFDPQDPYRRAQQF
B23: 171-184 protein required for Clb2 and Ase1 degradation (peptide)
chain: HSTPVTPRRLFTSQ
B24: 264-277 AP endonuclease (peptide)
chain: IINPDTPHRRIFNQ
B25: 440-453 protoporphyrinogen oxidase (peptide)
chain: HGVPVVPSREVTIN
B26: 172-185 homologous to Ssf2p;possibly involved in mating (peptide)
chain: IFPPLNPARTSLNS
B27: 1469-1482 Hypothetical ORF (peptide)
chain: GYDPTDPSRPRINE
B28: 393-406 Actin binding protein (peptide)
chain: FSKPQEPVKAEEAE
B29: 340-353 isopropylmalate isomerase (peptide)
chain: GLEPNTPLKSIKVD
B30: 509-522 Weak similarity to Pta1p (pre-tRNA processing protein) (peptide)
chain: IIFPYDPLKLGTHA
B31: 112-125 Cell cycle-dependent filament between nuclei (peptide)
chain: IIFPTSPTKLTFSN
B32: 138-151 Hypothetical ORF (peptide)
chain: ILKPDIPLRNMLLR
B33: 171-184 Hypothetical ORF (peptide)
chain: IIIPPIPSKHSLLK
B34: 61-74 (putative) involved in DNA replication (peptide)
chain: IEVPQSPTKNRVKV
B35: 631-644 dual specificity protein phosphatase (peptide)
chain: IAHPVRPHRAITMT
B36: 517-530 Hypothetical ORF (peptide)
chain: IMPPPKPFRHGLDS
B37: 476-489 Mitochondrial outer membrane protein involved in mitochondrial morphology and inheritance (peptide)
chain: GNIPVFPAKFGIQF
B38: 44-57 Hexose transporter (peptide)
chain: GNTPDAPKRGFLGY
B39: 241-254 RNA polymerase II mediator subunit (peptide)
chain: IAAPKKPRKPRQTK
B40: 316-329 " Yeast homologue of mammalian GRASP proteins, also localised to the Golgi apparatus." (peptide)
chain: FTAPPVPTKKKSKN
B41: 657-670 Hypothetical ORF (peptide)
chain: FQPPPKPFRRSQSS
B42: 390-403 serine/threonine-rich membrane protein (peptide)
chain: IPTPSKPLKKRKKR
B43: 124-137 Unknown (peptide)
chain: GAKPKIPSKLYQSV
B44: 379-392 Hypothetical ORF (peptide)
chain: GGQPPVPVRMQPQP
B45: 207-220 34kDa subunit of the tetrameric tRNA splicing endonuclease (peptide)
chain: IAYPGDPLRFHSHL
B46: 307-320 " Twinfilin A, an actin monomer sequestering protein" (peptide)
chain: GSNPDLPNKSNLKF
B47: 97-110 vacuolar ATPase V1 domain subunit F (14 kDa) (peptide)
chain: KDHPYDPEKDSVLK
B48: 219-232 component of cytoplasmic chaperonin complex (peptide)
chain: GRHPDMPTRVKNAY
B49: 144-157 nuclear shuttling protein with an RNA recognition motif (peptide)
chain: IFGPFGPMKEVKIL
B50: 862-875 Pho85 kinase inhibitor (peptide)
chain: FPYPGNPLKIINYE
B51: 91-104 phosphatidylserine decarboxylase located in vacuole or Golgi (peptide)
chain: GAPPTTPSRPRTTT
B52: 653-666 heat shock transcription factor (peptide)
chain: ILSPGYPNKSFNNK
B53: 84-97 chitin synthase 2 (peptide)
chain: HNSPVAPNRYAANL
B54: 459-472 Hypothetical ORF (peptide)
chain: ILLPPLPERAYIMD
B55: 377-390 lysyl-tRNA synthetase (peptide)
chain: HPDPADPAKELELN

The experiment deals with Sho1 SH3 (SHO1_YEAST), P40073. Kind of experiment: SPOT array.
Sho1 SH3 (SHO1_YEAST), P40073, sequence (P40073 295-366): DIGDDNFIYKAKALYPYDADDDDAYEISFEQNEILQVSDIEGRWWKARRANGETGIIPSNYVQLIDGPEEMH
Regarding B1, the normalised SPOT signal, Boehringer light units (BLU); mean over the file's lines of this peptide came out at 182.
B2: the normalised SPOT signal, Boehringer light units (BLU); mean over the file's lines of this peptide amounted to 141.
For B3, the normalised SPOT signal, Boehringer light units (BLU); mean over the file's lines of this peptide is 89.9.
In turn, B4 showed a normalised SPOT signal, Boehringer light units (BLU); mean over the file's lines of this peptide of 129.
Consider B5, for which the normalised SPOT signal, Boehringer light units (BLU); mean over the file's lines of this peptide came to 530.
Turning to B6, the normalised SPOT signal, Boehringer light units (BLU); mean over the file's lines of this peptide worked out at 156.
B7 displayed a normalised SPOT signal, Boehringer light units (BLU); mean over the file's lines of this peptide of 109.
The molecule B8 returned a normalised SPOT signal, Boehringer light units (BLU); mean over the file's lines of this peptide of 201.
In the case of B9, the normalised SPOT signal, Boehringer light units (BLU); mean over the file's lines of this peptide is 281.
B10 came in with a normalised SPOT signal, Boehringer light units (BLU); mean over the file's lines of this peptide of 112.
Regarding B11, the normalised SPOT signal, Boehringer light units (BLU); mean over the file's lines of this peptide is 39.3.
The result for B12 reads 773; that for B13, 59.4; that for B14, 94.7.
The result for B15 reads 56.4; that for B16, 164.
With B17, the normalised SPOT signal, Boehringer light units (BLU); mean over the file's lines of this peptide amounted to 60.3.
In turn, B18 returned a normalised SPOT signal, Boehringer light units (BLU); mean over the file's lines of this peptide of 284.
Then B19, with 121; and B20, with 158.
As for B21, the normalised SPOT signal, Boehringer light units (BLU); mean over the file's lines of this peptide came out at 237.
The result for B22 reads 48.8; that for B23, 240; that for B24, 174.
As for B25, the normalised SPOT signal, Boehringer light units (BLU); mean over the file's lines of this peptide was found to be 139.
The result for B26 reads 87.7; that for B27, 119.
For the molecule B28, the normalised SPOT signal, Boehringer light units (BLU); mean over the file's lines of this peptide came to 257.
As to B29, the normalised SPOT signal, Boehringer light units (BLU); mean over the file's lines of this peptide is 139.
For B30, the normalised SPOT signal, Boehringer light units (BLU); mean over the file's lines of this peptide was found to be 113.
Take B31: the normalised SPOT signal, Boehringer light units (BLU); mean over the file's lines of this peptide is 125.
In turn, B32 came in with a normalised SPOT signal, Boehringer light units (BLU); mean over the file's lines of this peptide of 159.
B33 returned a normalised SPOT signal, Boehringer light units (BLU); mean over the file's lines of this peptide of 352.
Turning to B34, the normalised SPOT signal, Boehringer light units (BLU); mean over the file's lines of this peptide was 141.
As to B35, the normalised SPOT signal, Boehringer light units (BLU); mean over the file's lines of this peptide was 112.
For the molecule B36, the normalised SPOT signal, Boehringer light units (BLU); mean over the file's lines of this peptide is 8750.
Then B37, with 213; and B38, with 45.5.
Turning to B39, the normalised SPOT signal, Boehringer light units (BLU); mean over the file's lines of this peptide turned out to be 327.
The molecule B40 showed a normalised SPOT signal, Boehringer light units (BLU); mean over the file's lines of this peptide of 4360.
In turn, B41 registered a normalised SPOT signal, Boehringer light units (BLU); mean over the file's lines of this peptide of 884.
Then B42, with 86.1; and B43, with 145; and B44, with 120.
B45 displayed a normalised SPOT signal, Boehringer light units (BLU); mean over the file's lines of this peptide of 174.
Molecule B46 returned a normalised SPOT signal, Boehringer light units (BLU); mean over the file's lines of this peptide of 140.
The molecule B47 gave a normalised SPOT signal, Boehringer light units (BLU); mean over the file's lines of this peptide of 25.5.
The molecule B48 showed a normalised SPOT signal, Boehringer light units (BLU); mean over the file's lines of this peptide of 189.
In the case of B49, the normalised SPOT signal, Boehringer light units (BLU); mean over the file's lines of this peptide came out at 250.
The result for B50 reads 214.
For B51, the normalised SPOT signal, Boehringer light units (BLU); mean over the file's lines of this peptide is 29.2.
Molecule B52 returned a normalised SPOT signal, Boehringer light units (BLU); mean over the file's lines of this peptide of 129.
Then B53, with 103; and B54, with 242; and B55, with 202.
